Results reported in the supplement of paper PMC9170038.

Test system: MS2 coat protein
Test: apparent KD of MS2 coat protein; designed switch direction (-1 OFF switch, 1 ON switch): 1; higher = weaker reporter binding
Summary of the method: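 The buffer was Tris-HCl pH 7.5 with KCl, MgCl2, BSA, DTT, tRNA and Tween-20. In it, SNAP-549-labelled MS2 coat protein was titrated in doubling steps from 0.7 or 1.5 nM to 3 µM over chip-bound RNA switches transcribed by stalled E. coli RNA polymerase on Illumina chips. Apparent KD is the per-design median over clusters of curve fits to normalised fluorescence.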

[1] = input ligand: microRNA oligo, concentration not stated
[2] = Eterna round: R95, input ligand: FMN 200 uM
[3] = Eterna round: R95, input ligand: microRNA oligo, concentration not stated
[4] = Eterna round: R95, input ligand: none

Sequence	apparent KD of MS2 coat protein (input ligand: FMN 200 uM) [nM]	apparent KD of MS2 coat protein [1] [nM]	apparent KD of MS2 coat protein (input ligand: none) [nM]	apparent KD of MS2 coat protein [2] [nM]	apparent KD of MS2 coat protein [3] [nM]	apparent KD of MS2 coat protein [4] [nM]
ACAUGAGAAAGAGGAUAUGUUGUACCUACAUGUGACAUGAGGAUCACCCAUGUGGUAAGUAUGAUACAGAAGGCUUAGAUAUGU [Equivalance 61 - Jieux - Same State NG 2] (Eterna round: R96, puzzle: Same State NG 2)	15.1	17.8	25.6	–	–	–
UUAAUAAUGUUAGGAUAUACAUGAGGAAUCCUCGUAGAAGGAACAUGACAUGAGGAUCACCCAUGUAGCGCUCAGAAGAGCGCA [Mat - Same State NG 1 - JL mod - D47] (Eterna round: R96, puzzle: Same State NG 1)	138	31.3	135	–	–	–
AACAAUCUAUCUGAGGAUAUUAUGAAAUAAACAUGAGGAUCACCCAUGUGCAGGAAAACUGCAUAUGAGAAGGCAGAUAGAUUGA [salish99_ss2_r3_027] (puzzle: Same State 2)	–	–	–	18.8	336	636
GCUCGACGUAUUGUCUACAUGAGGAUCACCCAUGUAGGUGCGGAGGAUAUUUACGUGUUUCAUGUAGAGAAGGUCGUGUCGAGC [SameState NG3 #94] (Eterna round: R96, puzzle: Same State NG 3)	27.8	166	185	–	–	–
ACUUGCUUUUUGCUCAUUUUUUGUCCGUAACAUGAGGAUCACCCAUGUGUAGAUUAUGUGUUGUUUUUGAUACGUGA [JR_SHM208A_Sub068] (puzzle: Sensor for hsa-mir-208a)	–	–	–	29.9	29.5	34.6
ACAUGAGGAUCACCCAUGUAUGCUCAGGAAACUGUGCAUCAUGAGGAUAUGGAUCCUAAUUGGAUCCAGAAGGCAUGUAUUAUU [Fiskers NG3ss - 28] (Eterna round: R96, puzzle: Same State NG 3)	699	39.1	45	–	–	–
GUUACAUGAGGAUCACCCAUGUAUGUGUGGGAGUAAGUGUCUUAGGAUAUCUGUUUUUUAAUUUAAGAGAAGGAAGAUUGUUGU [JMF's solution 33] (Eterna round: R96, puzzle: Same State NG 3)	105	59.6	112	–	–	–
AGUCCGGCCUGAGCUGGACUGAAGCAUGUACAUGAGGAUCACCCAUGUUCAUGUGCAGGCUUUUUGCUCGUCUUGUG [JL-shm-2.04 JL mod] (Eterna round: R96, puzzle: Sensor for hsa-mir-208a)	115	12.6	103	–	–	–
AGCCUGAGUCGAGGAUAUUAUGGAUCCUUUAAUACAUGAGGAUCACCCAUGUAAUUAAUUAUACAUGAGAAGGUGACUCAGGCA [SSNG2/11-B1] (Eterna round: R96, puzzle: Same State NG 2)	–	186	–	–	–	–
AAUCGUUUGAUAGGAUAUCGCUAUACAUGAGGAUCACCCAUGUUUACCACGCUGGUUUUUCAUACCGAGAAGGAUUCUGAUGAU [JL JR sub007 mod 10] (Eterna round: R96, puzzle: Same State NG 2)	36	31.2	35.2	–	–	–
GUGGCACAUGAGGAUCACCCAUGUAGGUAGAACAUAGGAUAUCACCAACAAAAUACCUGGUGAGAAGGAUGAUGCC [Zaesleer] (puzzle: Same State 1)	–	–	–	–	143	–
GCGAGCGUACUUGCAACAUGAGGAUCACCCAUGUUAACUGGACAGGAUAUGGUACCGUUUCGGUACCAGAAGGGUUUUACAUGU [JL SSNG3 3.65] (Eterna round: R96, puzzle: Same State NG 3)	35.1	29.1	35.6	–	–	–
UGUUGUAUUACAGGAUAUCUAGUAUUUUUAUGUAGAGAAGGGUAUUCACAUGAGGAUCACCCAUGUAUAUACGAGGAAGUUGUG [JMF's solution 52] (Eterna round: R96, puzzle: Same State NG 1)	–	28.9	–	–	–	–
UGCCUGAGUCGAGGAUAUUAUGGAUCCUUUAAUACAUGAGGAUCACCCAUGUAAUUAAUUAUACAUGAGAAGGCGACUCAGGCU [SSNG2/11-A3] (Eterna round: R96, puzzle: Same State NG 2)	–	58.9	–	–	–	–
GGUCCAGCCUGAGCUGGACCACAGCAUGUACAUGAGGAUCACCCAUGUCAUGUACAUGCUUUUUGUUUGUCUUAAAA [Sensorship 11 - Jieux - Sensor for hsa-mir-208a] (puzzle: Sensor for hsa-mir-208a)	–	–	–	72.2	32.7	47.3
ACAAGCUUUUUGCUCAUCUUAUGUCCGAAACAUGAGGAUCACCCAUGUAUAGAUUAUGUGUUGUUGUAGAUGCAAGA [JR_SHM208A_Sub062] (puzzle: Sensor for hsa-mir-208a)	–	–	–	31.8	25.9	42.9
UGUUGUUAAUUAGGAUAUGGUCACAUGAGGAUCACCCAUGUAAUGUCGAUGCUAUGUGGAUCUGAUCAGAAGGAAUGGCUAACA [SameState NG2 #96] (Eterna round: R96, puzzle: Same State NG 2)	108	105	137	–	–	–
AACAAUCUAUCUGAGGAUAUCAUGAAAUAAACAUGAGGAUCACCCAUGUGCAGGAAAACUGCAUAUGAGAAGGCAGUUAGAUUGA [salish99_ss2_r3_053] (puzzle: Same State 2)	–	–	–	45.5	612	568
GUAGCAUACCGAGGAUAUUCAUAUUAACAUGAGGAUCACCCAUGUUUAGGCCGAUUACGGCCUUGGGAGAAGGCGGAAUGCUAC [Xeonanis - 20 Mod22] (Eterna round: R96, puzzle: Same State NG 2)	10.9	14.9	25.1	–	–	–
UGGUACAUGGGAGGAUAUCCUCAUGAGACAUGAGGAUCACCCAUGUAUUAUAAGCCGAAAGGCAUGGAGAAGGCCCAUGUACCU [JL SSNG1 3.83] (Eterna round: R96, puzzle: Same State NG 2)	25	269	455	–	–	–
UGUUGUAUUACAGGAUAUCUAUUAGUUUUAUAUAGAGAAGGGUAUUCACAUGAGGAUCACCCAUGUAUAUACGAGGAAGUUGUG [JMF's solution 100] (Eterna round: R96, puzzle: Same State NG 1)	–	36.8	–	–	–	–
CGGAGACGUCAAGGAUAUGCUACCGUUUCGGUAGCAGAAGGUGAUCACAUGAGGAUCACCCAUGUAUGCAUGCGUGAGCGUGCU [JL SSNG1 3.51] (Eterna round: R96, puzzle: Same State NG 1)	125	99.2	21.1	–	–	–
ACAUGAAAGUUAGGAUAUUUUGUACCUACAUGUGACAUGAGGAUCACCCAUGUGGUAAGUAUAAGAGAGAAGGAGCAGAUAUGU [Equivalence 1 - Jieux - Same State NG 2] (Eterna round: R96, puzzle: Same State NG 2)	45.1	48.1	52.8	–	–	–
UUAUCUCAGACAUGAGGAUCACCCAUGUUUUUUUGUCUUAGACAGGAUAUAGUAGUAUCGAAAUACUAGAAGGGUCAUUUUAUU [JR_SSNG3_Sub023] (Eterna round: R96, puzzle: Same State NG 3)	18.4	23.5	28.9	–	–	–
CCAAAGUACAAUUUAGAUCUACAUGAGGAUCACCCAUGUACUGAGGAUAUCAGCUCGAUUAGAGCUGAGAAGGCAGAAUUAAUU [SSNG3/4-A2] (Eterna round: R96, puzzle: Same State NG 3)	101	90	148	–	–	–
UUUAGUUGCGGGCAGGAUAUGUAUUAAAAUACAUGAGGAUCACCCAUGUGUGGGUAUAACACCCAACAGAAGGGCCAAUCGCGAC [Laonerce - 12] (puzzle: Same State 2)	–	–	–	17.2	154	165
GCCGCGUUUCGCGCCUACAUGAGGAUCACCCAUGUAUGUAGGCAGGAUAUCGUUUGCUUUGCAAACGAGAAGGGCUGUAGUGGC [salish99_SSNG3_R04_008] (Eterna round: R96, puzzle: Same State NG 3)	70.4	165	188	–	–	–
AGUAUACAUGAGGAUCACCCAUGUCAACGUAGUCGAGGAUAUGGGCAGCCGUGAGGCGUACUAGAAGGCGAAGAGA [Mat - Same State 1 - Mod of JL - D7] (puzzle: Same State 1)	–	–	–	48.9	135	101
